B1: LINE1-full (parent)
chain: UACGUAGGUGGUUUUCCCCUGAUAGUGCUAAGGGGGCCUGGAAGUUUGGACUGGGCAGAGCUCAACACAGCGUGGCAAAGUGGCUGUGGCUAGACUGCCUCUCUGGAUUCCUCGUCACUCAGCAGGGCAUCUCUGAGAGAAAUGCC

Variants of: B1
Test: self-cleavage, relative activity (ratio to wild type); higher = more cleavage; in vitro, sequencing; the parent is a self-cleaving ribozyme

Variant	self-cleavage
UACGUAGGUGGUUUUCCCCUGAUAGUGCUAAGGGGGCCUGGAAGUUUGGACUGGGCAGAGCUCAACACAGCGUGGCAAAGUGGCUGUGGCUAGACUGCAUCUCUGGAUUCCUUGUCACUCAGCAGGGCAUCUCUGAGAGAAAUGCC	0.27
UACGUAGGUGGUUUUCCCCUGAUAGUGCUAAGGGGGCCUGGAAGUUUGGACUGGGCAGAGCUCAACACAGCGUGGCAAAGUGGCUGUGGCUAGACUGCUUCUCUGGAUUCCUCGUCACUCAGCGGGGCAUCUCUGAGAGAAAUGCC	0.32
UACGUAGGUGGUUUUCCCCUGAUAGUGCUAAGGGGGCCUGGAAGUUUGGACUGGGCAGAGCUCAACACAGCGUGGCAAAGUGGCUGUGGCUAGACUGCUUCUCUGGAUUCCUCGUCACUCAGCUGGGCAUCUCUGAGAGAAAUGCC	0.42
UACGUAGGUGGUUUUCCCCUGAUAGUGCUAAGGGGGCCUGGAAGUUUGGACUGGGCAGAGCUCAACACAGCGUGGCAAAGUGGCUGUGGCUAGACUGCUUCUCUGGAUUCCUUGUCACUCAGCAGGGCAUCUCUGAGAGAAAUGCC	0.41
UACGUAGGUGGUUUUCCCCUGAUAGUGCUAAGGGGGCCUGGAAGUUUGGACUGGGCAGAGCUCAACACAGCGUGGCAAAGUGGCUGUGGCUAGACUGCUUCUCUGGAUUCCUCGUCACUCAGCAGGGCAUCUCUGAGGGAAAUGCC	1.14
UACGUAGGUGGUUUUCCCCUGAUAGUGCUAAGGGGGCCUGGAAGUUUGGACUGGGCAGAGCUCAACACAGCGUGGCAAAGUGGCUGUGGCUAGACUGCUUCUCUGGAUUCCUCGUCACUCAGCAGGGCAUCUCUGAGUGAAAUGCC	0.74
UACGUAGGUGGUUUUCCCCUGAUAGUGCUAAGGGGGCCUGGAAGUUUGGACUGGGCAGAGCUCAACACAGCGUGGCAAAGUGGCUGUGGCUAGACUGCUUCUCUGGAUUCCUCGUCGCUCAGCAGGGCAUCUCUGAGAGAAAUGCC	0.4
UACGUAGGUGGUUUUCCCCUGAUAGUGCUAAGGGGGCCUGGAAGUUUGGACUGGGCAGAGCUCAACACAGCGUGGCAAAGUGGCUGUGGCUAGACUGCUUCUCUGGAUUCCUCGUCACUCAGCAGGGCGUCUCUGAGAGAAAUGCC	0.89
UACGUAGGUGGUUUUCCCCUGAUAGUGCUAAGGGGGCCUGGAAGUUUGGACUGGGCAGAGCUCAACACAGCGUGGCAAAGUGGCUGUGGCUAGACUGCUUCUCUGGAUUCCUCGUCACUCAGCAGGGCAUCUUUGAGAGAAAUGCC	0.34
UACGUAGGUGGUUUUCCCCUGAUAGUGCUAAGGGGGCCUGGAAGUUUGGACUGGGCAGAGCUCAACACAGCGUGGCAAAGUGGCUGUGGCUAGACUGCUUUUCUGGAUUCCUCGUCACUCAGCAGGGCAUCUCUGAGAGAAAUGCC	1
UACGUAGGUGGUUUUCCCCUGAUAGUGCUAAGGGGGCCUGGAAGUUUGGACUGGGCAGAGCUCAACACAGCGUGGCAAAGUGGCUGUGGCUAGACUGCAUCUCUGGAUUCCUCAUCACUCAGCAGGGCAUCUCUGAGAGAAAUGCC	0.44
UACGUAGGUGGUUUUCCCCUGAUAGUGCUAAGGGGGCCUGGAAGUUUGGACUGGGCAGAGCUCAACACAGCGUGGCAAAGUGGCUGUGGCUAGACUGCGUCUCUGGAUUCCACGUCACUCAGCAGGGCAUCUCUGAGAGAAAUGCC	0.69
UACGUAGGUGGUUUUCCCCUGAUAGUGCUAAGGGGGCCUGGAAGUUUGGACUGGGCAGAGCUCAACACAGCGUGGCAAAGUGGCUGUGGCUAGACUGCAUCUCUGGAUUCCUCGUCACUCAGCAGGGCAUCUCUGAGAGAAACGCC	1.03
UACGUAGGUGGUUUUCCCCUGAUAGUGCUAAGGGGGCCUGGAAGUUUGGACUGGGCAGAGCUCAACACAGCGUGGCAAAGUGGCUGUGGCUAGACUGCAUCUCUGGAUUCCUCGUCACUCAGCAGGGCAUCUCUGAGAGAAAAGCC	0.84
UACGUAGGUGGUUUUCCCCUGAUAGUGCUAAGGGGGCCUGGAAGUUUGGACUGGGCAGAGCUCAACACAGCGUGGCAAAGUGGCUGUGGCUAGACUGCUUCUCUGGAUUCCUCGUCACUCAGCAGGGCAUCUCUGAGAGAAAUGCC	0.57
UACGUAGGUGGUUUUCCCCUGAUAGUGCUAAGGGGGCCUGGAAGUUUGGACUGGGCAGAGCUCAACACAGCGUGGCAAAGUGGCUGUGGCUAGACUGCGUCUCUGGAUUCCUCGUCACUCAGCAGGGCAUCUCUGAGAGAAAUGCC	0.76
UACGUAGGUGGUUUUCCCCUGAUAGUGCUAAGGGGGCCUGGAAGUUUGGACUGGGCAGAGCUCAACACAGCGUGGCAAAGUGGCUGUGGCUAGACUGCAUCUCUGGAUUCCUCGCCACUCAGCAGGGCAUCUCUGAGAGAAAUGCC	0.84
UACGUAGGUGGUUUUCCCCUGAUAGUGCUAAGGGGGCCUGGAAGUUUGGACUGGGCAGAGCUCAACACAGCGUGGCAAAGUGGCUGUGGCUAGACUGCAUCUCUGGAUUCCUCGUCACUCAGCAGGGCAUCUCUGAGGGAAAUGCC	0.88
UACGUAGGUGGUUUUCCCCUGAUAGUGCUAAGGGGGCCUGGAAGUUUGGACUGGGCAGAGCUCAACACAGCGUGGCAAAGUGGCUGUGGCUAGACUGCAUCUCUGGAUUCCUCGUCACUCAGCGGGGCAUCUCUGAGAGAAAUGCC	0.21
UACGUAGGUGGUUUUCCCCUGAUAGUGCUAAGGGGGCCUGGAAGUUUGGACUGGGCAGAGCUCAACACAGCGUGGCAAAGUGGCUGUGGCUAGACUGCUUCUCUGGAUUCCUCGUCACUCAGCAGGGCAUCUCUGAGAGGAAUGCC	0.71
